The record followed here is the supplement of paper PMC7877785.

± gives the uncertainty stated by the source.

A short description of this data set: self-splicing fitness, log relative to wild type (ln ratio); higher = more splicing; Tetrahymena group I intron in knt gene, E. coli kanamycin selection, DiMSum; sequences stand for … in CUCUCU…GGAGGGAAAAGUUAUCAGGCAUGCACCUGGUAGCUAGUCUUUAAACCAAUAGAUUGCAUCGGUUUAAAAGGCAAGACCGUCAAAUUGCGGGAAAGGGGUCAACAGCCGUUCAGUACCAAGUCUCAGGGGAAACUUUGAGAUGGCCUUGCAAAGGGUAUGGUAAUAAGCUGACGGACAUGGUCCUAACCACGCAGCCAAGUCCUAAGUCAACAGAUCUUCUGUUGAUAUGGAUGCAGUUCACAGACUAAAUGUCGGUCGGGGAAGAUGUAUUCUUCUCAUAAGAUAUAGUCGGACCUCUCCUUAAUGGGAGCUAGCGGAUGAAGUGAUGCAACACUGGAGCCGCUGGGAACUAAUUUGUAUGCGAAAGUAUAUUGAUUAGUUUUGGAGUACUCGUGGUCG
In a few lines: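 Six replicate transformations of E. coli BL21(DE3) with a pET-22b(+) library were grown overnight at 37°C or 30°C. The library randomised all eight P1ex-region intron nucleotides, the intron lying in the knt kanamycin-resistance gene, and plates were LB agar with or without 25 μg/mL kanamycin plus 100 μg/mL carbenicillin, 50 μM IPTG and 0.2% rhamnose. Pooled colonies were amplicon-sequenced on an Illumina HiSeq 2500, and fitness is the DiMSum error-weighted combination of wild-type-normalised replicate fold changes, kanamycin versus none.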

For the sequence CCUGAGCAAUAUUACGGGAG, the “self-splicing fitness (ln)” value reads like this: (30 °C) -4.51 ± 0.27; (37 °C) -2.65 ± 0.2. In the case of CGACAGCAAUAUUACGGGAU, the “self-splicing fitness (ln)” value reads like this: (30 °C) -3.98 ± 0.18; (37 °C) -2.52 ± 0.19.

Turning to AUGUAGCAAUAUUACGUGGU, the “self-splicing fitness (ln)” value (37 °C) was -1.53 ± 0.17.

Regarding UAGUAGCAAUAUUACGUCGG, the “self-splicing fitness (ln)” value (30 °C) is -2.04 ± 0.08 and the “self-splicing fitness (ln)” value (37 °C) was -1.53 ± 0.12. The like results for GACUAGCAAUAUUACGAAGC were, in that order, -2.18 ± 0.18 and -1.55 ± 0.18. Turning to GAGCAGCAAUAUUACGGUCA, the “self-splicing fitness (ln)” value was -0.942 ± 0.11 (30 °C) and -0.118 ± 0.11 (37 °C). The like results for ACCAAGCAAUAUUACGGGGC were, in that order, -3.74 ± 0.18 and -2.1 ± 0.14. The like results for CGGUAGCAAUAUUACGCAGG were, in that order, -1.26 ± 0.12 and -1.44 ± 0.18. On the same counts, the results for AACUAGCAAUAUUACGCCGA are -1.74 ± 0.18 and -0.583 ± 0.18. Regarding CAUUAGCAAUAUUACGUUAA, the “self-splicing fitness (ln)” value was -2.87 ± 0.22 (30 °C) and -1.91 ± 0.2 (37 °C). On the same counts, the results for GCCGAGCAAUAUUACGCCUG are -3.59 ± 0.23 and -2.03 ± 0.22. For GACUAGCAAUAUUACGCGAU, the “self-splicing fitness (ln)” value (30 °C) was -2.8 ± 0.21 and the “self-splicing fitness (ln)” value (37 °C) was -2.42 ± 0.3. The like results for AAAGAGCAAUAUUACGGGGA were, in that order, -2.48 ± 0.35 and -1.81 ± 0.28. On the same counts, the results for UAGCAGCAAUAUUACGUGGG are -3.61 ± 0.11 and -2.42 ± 0.13. In the case of UCCGAGCAAUAUUACGGAAU, the “self-splicing fitness (ln)” value is -1.91 ± 0.14 (30 °C) and -1.77 ± 0.2 (37 °C).

With ACCCAGCAAUAUUACGCAUG, the “self-splicing fitness (ln)” value runs as follows: (30 °C) -4.1 ± 0.15; (37 °C) -2.58 ± 0.15. CCUAAGCAAUAUUACGCUCC: the “self-splicing fitness (ln)” value (30 °C) was -4.01 ± 0.46 and the “self-splicing fitness (ln)” value (37 °C) is -2.97 ± 0.29. Consider GAUCAGCAAUAUUACGUUAA, for which the “self-splicing fitness (ln)” value by setting is: (30 °C) -1.23 ± 0.076; (37 °C) -0.776 ± 0.084. Regarding CAUUAGCAAUAUUACGCGAC, for the setting “30 °C”, the “self-splicing fitness (ln)” value is -3.58 ± 0.48. GUCAAGCAAUAUUACGAGCG: the “self-splicing fitness (ln)” value is, setting by setting: (30 °C) -2.72 ± 0.16; (37 °C) -1.2 ± 0.18. As for CCAUAGCAAUAUUACGACCA, the “self-splicing fitness (ln)” value (30 °C) is -2.52 ± 0.46.

UACGAGCAAUAUUACGUAAG: the “self-splicing fitness (ln)” value reads like this: (30 °C) -3.58 ± 0.2; (37 °C) -2.33 ± 0.19. On the same counts, the results for UCGGAGCAAUAUUACGGCCA are -3.25 ± 0.44 and -1.63 ± 0.35. On the same counts, the results for CGCCAGCAAUAUUACGUCCU are -4.8 ± 0.36 and -2.45 ± 0.31. On to CAAUAGCAAUAUUACGGCUU, for which the “self-splicing fitness (ln)” value was -2.53 ± 0.13 (30 °C) and -1.42 ± 0.13 (37 °C). On the same counts, the results for CCCCAGCAAUAUUACGAAUC are -3.68 ± 0.16 and -2.49 ± 0.22. The like results for CCAUAGCAAUAUUACGCUCU were, in that order, -4.23 ± 0.3 and -2.85 ± 0.24. On the same counts, the results for CCGAAGCAAUAUUACGUUCU are -3.84 ± 0.26 and -3.37 ± 0.24. Take UGGCAGCAAUAUUACGUUUC: the “self-splicing fitness (ln)” value reads like this: (30 °C) -3.1 ± 0.14; (37 °C) -2.77 ± 0.26. On the same counts, the results for AAAUAGCAAUAUUACGGUAA are -2.14 ± 0.21 and -1.5 ± 0.16. The like results for AGACAGCAAUAUUACGGUUC were, in that order, -3.34 ± 0.18 and -1.05 ± 0.13. The like results for AGGAAGCAAUAUUACGGCUC were, in that order, -1.07 ± 0.14 and -0.713 ± 0.19.

Consider CCAAAGCAAUAUUACGUUCU, for which the “self-splicing fitness (ln)” value is, setting by setting: (30 °C) -3.78 ± 0.26; (37 °C) -2.3 ± 0.23. On to AGUUAGCAAUAUUACGCUAU, for which the “self-splicing fitness (ln)” value (30 °C) was -2.29 ± 0.17 and the “self-splicing fitness (ln)” value (37 °C) was -1.21 ± 0.14. The like results for CCAAAGCAAUAUUACGCUCG were, in that order, -1.97 ± 0.11 and -0.271 ± 0.12.

With GAGAAGCAAUAUUACGGAUG, the “self-splicing fitness (ln)” value was -2.5 ± 0.14 (30 °C) and -0.821 ± 0.13 (37 °C). On the same counts, the results for GGUCAGCAAUAUUACGCGGA are -2.04 ± 0.47 and -2.17 ± 0.41. As to AGCGAGCAAUAUUACGCUAU, the “self-splicing fitness (ln)” value (37 °C) is -2.87 ± 0.24. Still for that read-out and setting: the same measure for AGGAAGCAAUAUUACGAAAA: -2.42 ± 0.41. For AUUGAGCAAUAUUACGUGCC, the “self-splicing fitness (ln)” value (30 °C) is -2.73 ± 0.4.

As for AUAUAGCAAUAUUACGUGCA, the “self-splicing fitness (ln)” value is -1.57 ± 0.16 (30 °C) and 0.00562 ± 0.16 (37 °C).

As for CUCGAGCAAUAUUACGCUUA, the “self-splicing fitness (ln)” value is -2.27 ± 0.47 (30 °C) and -2.22 ± 0.34 (37 °C). On the same counts, the results for ACGUAGCAAUAUUACGUGAG are -3.75 ± 0.17 and -2.55 ± 0.14.

In the case of UUUUAGCAAUAUUACGAUAU, the “self-splicing fitness (ln)” value reads like this: (30 °C) -2.66 ± 0.22; (37 °C) -1.42 ± 0.28.

As to CAGUAGCAAUAUUACGCUCA, the “self-splicing fitness (ln)” value reads like this: (30 °C) -0.118 ± 0.13; (37 °C) 0.5 ± 0.17.

In the case of UACCAGCAAUAUUACGAUCU, the “self-splicing fitness (ln)” value (30 °C) is -1.77 ± 0.13 and the “self-splicing fitness (ln)” value (37 °C) was -1.08 ± 0.16. The like results for UAGGAGCAAUAUUACGGACU were, in that order, -3.22 ± 0.25 and -2.41 ± 0.22. Consider GUGUAGCAAUAUUACGUCUU, for which the “self-splicing fitness (ln)” value is 0.202 ± 0.18 (30 °C) and -0.00398 ± 0.18 (37 °C). The like results for CGAGAGCAAUAUUACGCCGG were, in that order, -2.74 ± 0.41 and -1.27 ± 0.45. In the case of CCCCAGCAAUAUUACGUACU, the “self-splicing fitness (ln)” value (30 °C) was -3.21 ± 0.22 and the “self-splicing fitness (ln)” value (37 °C) was -2.67 ± 0.27. In the case of AAAGAGCAAUAUUACGACUG, where the note is “30 °C”, the “self-splicing fitness (ln)” value was -3 ± 0.32. As for GUUUAGCAAUAUUACGAAGG, the “self-splicing fitness (ln)” value by setting is: (30 °C) -2.93 ± 0.38; (37 °C) -1.37 ± 0.26. The like results for CCCCAGCAAUAUUACGUGAG were, in that order, -1.84 ± 0.07 and -1.33 ± 0.084. As to GUUGAGCAAUAUUACGGGGG, the “self-splicing fitness (ln)” value was -3.87 ± 0.31 (30 °C) and -2.34 ± 0.25 (37 °C). As for AGGCAGCAAUAUUACGCGCU, the “self-splicing fitness (ln)” value was -3.04 ± 0.15 (30 °C) and -1.03 ± 0.1 (37 °C). On the same counts, the results for AGCAAGCAAUAUUACGGUGU are -2.65 ± 0.13 and -0.608 ± 0.1. On to GGCCAGCAAUAUUACGUUUA, for which the “self-splicing fitness (ln)” value is, setting by setting: (30 °C) -2.69 ± 0.19; (37 °C) -1.87 ± 0.16. For CUUUAGCAAUAUUACGUCCU, the “self-splicing fitness (ln)” value (37 °C) was -1.9 ± 0.31. Consider UUCCAGCAAUAUUACGAUGA, for which the “self-splicing fitness (ln)” value (30 °C) was -0.211 ± 0.067 and the “self-splicing fitness (ln)” value (37 °C) was found to be 0.0453 ± 0.072. With GUGGAGCAAUAUUACGAGUG, the “self-splicing fitness (ln)” value (37 °C) was -1.74 ± 0.36. Consider CGACAGCAAUAUUACGACGA, for which the “self-splicing fitness (ln)” value runs as follows: (30 °C) -1.01 ± 0.12; (37 °C) 0.0299 ± 0.14. On the same counts, the results for GAACAGCAAUAUUACGGUCU are -1.16 ± 0.086 and -0.205 ± 0.095. Take GUUUAGCAAUAUUACGUAAC: the “self-splicing fitness (ln)” value reads like this: (30 °C) -2.2 ± 0.29; (37 °C) -1.96 ± 0.39. On the same counts, the results for GGUCAGCAAUAUUACGGGAA are -1.5 ± 0.16 and -0.702 ± 0.15. Turning to AGUAAGCAAUAUUACGGUCA, the “self-splicing fitness (ln)” value runs as follows: (30 °C) -0.817 ± 0.074; (37 °C) 0.0737 ± 0.081. On the same counts, the results for AAGUAGCAAUAUUACGUCCA are -0.464 ± 0.18 and -0.521 ± 0.17.

On to CCGUAGCAAUAUUACGCAAC, for which the “self-splicing fitness (ln)” value (30 °C) is -4.04 ± 0.26 and the “self-splicing fitness (ln)” value (37 °C) is -2.13 ± 0.21. The like results for CUUGAGCAAUAUUACGCGGG were, in that order, -3.92 ± 0.3 and -0.302 ± 0.18. Take CUCGAGCAAUAUUACGUGUC: the “self-splicing fitness (ln)” value (37 °C) is -2.76 ± 0.27. For GCAAAGCAAUAUUACGUUUC, the “self-splicing fitness (ln)” value runs as follows: (30 °C) -4.41 ± 0.28; (37 °C) -3.44 ± 0.23.

On to GCAGAGCAAUAUUACGCGGG, for which the “self-splicing fitness (ln)” value is -3.58 ± 0.39 (30 °C) and -2.24 ± 0.28 (37 °C).

Consider AAGGAGCAAUAUUACGUGUG, for which the “self-splicing fitness (ln)” value is -3.39 ± 0.17 (30 °C) and -0.957 ± 0.15 (37 °C).

Take CGUAAGCAAUAUUACGUUUA: the “self-splicing fitness (ln)” value is, setting by setting: (30 °C) -1.69 ± 0.18; (37 °C) -1.41 ± 0.18.

For GAGCAGCAAUAUUACGCAUU, the “self-splicing fitness (ln)” value (30 °C) is -3.04 ± 0.2 and the “self-splicing fitness (ln)” value (37 °C) is -2.23 ± 0.24. On the same counts, the results for AAGAAGCAAUAUUACGAGAA are -2.07 ± 0.26 and -1.87 ± 0.19. The like results for AGCCAGCAAUAUUACGAUAU were, in that order, -3.25 ± 0.16 and -1.83 ± 0.14. The like results for AGCUAGCAAUAUUACGGGAG were, in that order, -1.59 ± 0.13 and -2.54 ± 0.19. For GUACAGCAAUAUUACGCCCG, the “self-splicing fitness (ln)” value reads like this: (30 °C) -1.85 ± 0.14; (37 °C) -1.38 ± 0.2.
